The text below walks through data of patent US10500249B2, “Compositions and methods for preventing or treating diseases, conditions, or processes characterized by aberrant fibroblast proliferation and extracellular matrix deposition” (MOERAE MATRIX, INC., priority 2014, dated 2019).

Assay in all cases: Kinase Profiling Assay
Common to all, as to type: biochemical
Holding throughout (conditions): 100 μM

One experiment addresses EphA5 (h) (Homo sapiens, UniProt P54756). The method, boiled down: (§1)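 Radiometric filter-binding format: cationic substrate takes up labeled phosphate from ATP unless the inhibitor peptide blocks the kinase. Substrate bound to an anionic filter, scintillation-counted, normalized to 100% activity control. Duplicates; part of a 266-kinase selectivity panel for MK2 peptides.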

For another experiment, the target named is FGFR2 (h) (Homo sapiens, UniProt P21802). Summed up:
as §1

Another experiment addresses Abl (Q252H) (h) (Homo sapiens, UniProt P00519, Q252H). The method, boiled down: as §1
The next experiment concerns the target T1, CaMKIV (h) (Homo sapiens, UniProt Q16566).
T1 construct: purchased Millipore
T1 sequence (Q16566 1-473): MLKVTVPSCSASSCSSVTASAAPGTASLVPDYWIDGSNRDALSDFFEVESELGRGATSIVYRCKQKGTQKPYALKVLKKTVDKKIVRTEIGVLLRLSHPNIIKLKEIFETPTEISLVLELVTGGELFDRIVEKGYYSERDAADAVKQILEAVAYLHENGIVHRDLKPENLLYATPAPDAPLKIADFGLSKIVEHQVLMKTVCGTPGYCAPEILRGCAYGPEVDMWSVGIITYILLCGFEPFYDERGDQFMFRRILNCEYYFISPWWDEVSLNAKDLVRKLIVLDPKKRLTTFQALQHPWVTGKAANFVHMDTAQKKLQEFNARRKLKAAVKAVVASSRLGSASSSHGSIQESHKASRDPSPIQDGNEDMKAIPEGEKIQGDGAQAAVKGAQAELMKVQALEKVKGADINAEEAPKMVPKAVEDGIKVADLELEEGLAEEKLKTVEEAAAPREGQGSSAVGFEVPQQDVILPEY
Summed up:
as §1

A further experiment concerns the target T2, CDK7/cyclinH/MAT1 (h) (Homo sapiens, UniProt P50613).
T2 construct: purchased Millipore
Summed up:
as §1

The next experiment concerns the target ROCK-I (h) (Homo sapiens, UniProt Q13464). Summed up: as §1
The target of a further experiment is T3, mTOR/FKBP12 (h) (Homo sapiens, UniProt P42345).
T3 construct: purchased Millipore
Summed up:
as §1

In a further experiment the target is Pyk2 (h) (Homo sapiens, UniProt Q14289). The method, boiled down: as §1
Chain of Pyk2 (h) (Q14289 whole entry): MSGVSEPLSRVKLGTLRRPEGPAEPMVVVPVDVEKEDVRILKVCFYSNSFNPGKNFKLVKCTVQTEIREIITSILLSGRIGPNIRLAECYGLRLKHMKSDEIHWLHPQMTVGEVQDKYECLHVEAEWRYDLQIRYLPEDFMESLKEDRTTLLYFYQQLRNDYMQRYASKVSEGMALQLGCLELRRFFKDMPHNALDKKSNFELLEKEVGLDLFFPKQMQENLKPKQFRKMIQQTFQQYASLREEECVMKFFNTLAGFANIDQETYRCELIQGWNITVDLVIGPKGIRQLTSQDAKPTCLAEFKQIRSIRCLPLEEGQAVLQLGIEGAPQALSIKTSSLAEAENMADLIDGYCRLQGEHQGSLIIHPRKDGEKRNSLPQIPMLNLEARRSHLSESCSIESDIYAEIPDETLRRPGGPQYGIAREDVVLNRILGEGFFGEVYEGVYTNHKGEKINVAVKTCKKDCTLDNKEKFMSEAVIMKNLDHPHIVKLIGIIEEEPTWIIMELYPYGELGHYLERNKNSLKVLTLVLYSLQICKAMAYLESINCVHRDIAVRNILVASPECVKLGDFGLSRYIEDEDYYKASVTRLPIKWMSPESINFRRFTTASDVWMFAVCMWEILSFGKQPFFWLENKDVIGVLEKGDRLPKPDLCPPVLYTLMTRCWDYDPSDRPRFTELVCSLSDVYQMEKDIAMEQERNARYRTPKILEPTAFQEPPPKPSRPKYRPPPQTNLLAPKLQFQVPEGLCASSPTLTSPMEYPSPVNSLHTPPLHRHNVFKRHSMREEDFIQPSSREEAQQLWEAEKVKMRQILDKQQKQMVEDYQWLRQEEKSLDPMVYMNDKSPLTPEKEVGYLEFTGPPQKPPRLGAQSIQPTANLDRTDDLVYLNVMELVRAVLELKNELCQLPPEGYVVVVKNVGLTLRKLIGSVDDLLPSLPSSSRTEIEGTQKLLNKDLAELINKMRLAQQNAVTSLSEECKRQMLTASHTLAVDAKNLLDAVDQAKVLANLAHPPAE
In another experiment the target is T4, CHK2 (h) (Homo sapiens, UniProt O96017).
T4 construct: purchased Millipore
T4 sequence (O96017 whole entry): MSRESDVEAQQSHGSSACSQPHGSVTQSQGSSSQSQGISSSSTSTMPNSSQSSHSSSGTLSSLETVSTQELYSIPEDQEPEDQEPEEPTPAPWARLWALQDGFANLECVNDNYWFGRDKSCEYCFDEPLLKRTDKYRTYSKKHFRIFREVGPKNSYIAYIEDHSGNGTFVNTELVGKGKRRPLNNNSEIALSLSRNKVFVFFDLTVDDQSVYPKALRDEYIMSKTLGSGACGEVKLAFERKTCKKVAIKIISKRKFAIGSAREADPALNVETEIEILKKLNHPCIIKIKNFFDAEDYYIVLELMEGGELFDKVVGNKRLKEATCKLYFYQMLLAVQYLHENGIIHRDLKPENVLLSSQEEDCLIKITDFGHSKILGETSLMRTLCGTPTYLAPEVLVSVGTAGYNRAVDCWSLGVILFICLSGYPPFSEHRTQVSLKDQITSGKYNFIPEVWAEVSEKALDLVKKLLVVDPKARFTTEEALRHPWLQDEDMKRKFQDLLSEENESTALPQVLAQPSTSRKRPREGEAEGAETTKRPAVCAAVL
Summed up: as §1

The target of a further experiment is Flt3(D835Y) (h) (Homo sapiens, UniProt P36888, D835Y). Summed up: as §1
For a further experiment, the target named is Tie2 (h) (Homo sapiens, UniProt Q02763). Summed up: as §1
Chain of Tie2 (h) (Q02763 23-1124): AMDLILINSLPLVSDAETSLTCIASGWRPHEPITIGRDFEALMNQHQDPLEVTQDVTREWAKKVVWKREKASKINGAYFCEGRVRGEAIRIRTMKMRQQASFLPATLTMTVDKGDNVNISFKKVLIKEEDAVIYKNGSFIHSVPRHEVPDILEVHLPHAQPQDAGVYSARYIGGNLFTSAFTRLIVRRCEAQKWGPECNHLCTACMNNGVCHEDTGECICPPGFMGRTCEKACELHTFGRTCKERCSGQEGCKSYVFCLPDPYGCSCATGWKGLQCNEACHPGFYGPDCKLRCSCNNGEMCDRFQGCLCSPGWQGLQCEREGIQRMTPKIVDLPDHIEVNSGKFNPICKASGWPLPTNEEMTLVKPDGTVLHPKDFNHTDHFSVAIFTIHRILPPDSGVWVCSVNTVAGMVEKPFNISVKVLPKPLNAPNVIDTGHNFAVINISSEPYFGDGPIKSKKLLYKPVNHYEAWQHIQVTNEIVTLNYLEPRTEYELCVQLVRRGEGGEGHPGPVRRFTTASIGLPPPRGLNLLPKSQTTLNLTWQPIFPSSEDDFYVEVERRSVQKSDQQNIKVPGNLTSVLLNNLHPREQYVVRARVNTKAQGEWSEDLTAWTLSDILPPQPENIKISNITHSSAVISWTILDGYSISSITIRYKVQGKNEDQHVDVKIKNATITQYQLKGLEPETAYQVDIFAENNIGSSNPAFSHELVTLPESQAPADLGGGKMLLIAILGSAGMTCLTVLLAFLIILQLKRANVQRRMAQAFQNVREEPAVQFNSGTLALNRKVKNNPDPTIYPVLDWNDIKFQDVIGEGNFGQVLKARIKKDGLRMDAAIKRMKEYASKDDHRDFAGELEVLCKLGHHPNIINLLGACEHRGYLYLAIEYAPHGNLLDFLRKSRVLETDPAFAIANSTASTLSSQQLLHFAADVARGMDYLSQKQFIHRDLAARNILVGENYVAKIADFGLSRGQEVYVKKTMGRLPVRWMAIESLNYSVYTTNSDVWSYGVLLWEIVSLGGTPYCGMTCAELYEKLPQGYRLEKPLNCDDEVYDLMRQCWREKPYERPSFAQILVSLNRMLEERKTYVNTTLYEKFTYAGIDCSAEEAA
In another experiment the target is Fer (h) (Homo sapiens, UniProt P16591). Summed up: as §1
Chain of Fer (h) (P16591 whole entry): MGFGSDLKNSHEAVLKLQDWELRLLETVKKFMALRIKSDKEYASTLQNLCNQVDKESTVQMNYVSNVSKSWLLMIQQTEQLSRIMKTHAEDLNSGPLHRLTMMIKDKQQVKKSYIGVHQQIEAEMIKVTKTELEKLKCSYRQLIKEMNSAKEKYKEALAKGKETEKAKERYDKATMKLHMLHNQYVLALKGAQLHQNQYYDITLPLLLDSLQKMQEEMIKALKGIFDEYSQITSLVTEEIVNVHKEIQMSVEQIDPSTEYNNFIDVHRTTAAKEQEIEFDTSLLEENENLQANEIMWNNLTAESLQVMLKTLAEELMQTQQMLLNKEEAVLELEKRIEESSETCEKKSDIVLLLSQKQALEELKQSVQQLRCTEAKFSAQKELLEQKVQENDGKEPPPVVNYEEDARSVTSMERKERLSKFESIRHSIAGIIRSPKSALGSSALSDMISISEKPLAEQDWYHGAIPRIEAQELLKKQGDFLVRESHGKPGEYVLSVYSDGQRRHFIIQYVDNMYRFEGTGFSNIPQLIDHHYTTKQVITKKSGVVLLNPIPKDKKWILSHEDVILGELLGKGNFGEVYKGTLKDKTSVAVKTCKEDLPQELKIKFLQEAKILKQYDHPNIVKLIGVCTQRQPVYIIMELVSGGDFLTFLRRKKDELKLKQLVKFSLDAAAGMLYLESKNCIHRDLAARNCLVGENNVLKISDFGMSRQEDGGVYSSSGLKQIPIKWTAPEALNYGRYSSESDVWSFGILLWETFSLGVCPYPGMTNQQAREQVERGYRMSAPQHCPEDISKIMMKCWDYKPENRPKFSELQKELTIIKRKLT
A further experiment addresses T5, TBK1 (h) (Homo sapiens, UniProt Q9UHD2).
T5 sequence (Q9UHD2 1-729): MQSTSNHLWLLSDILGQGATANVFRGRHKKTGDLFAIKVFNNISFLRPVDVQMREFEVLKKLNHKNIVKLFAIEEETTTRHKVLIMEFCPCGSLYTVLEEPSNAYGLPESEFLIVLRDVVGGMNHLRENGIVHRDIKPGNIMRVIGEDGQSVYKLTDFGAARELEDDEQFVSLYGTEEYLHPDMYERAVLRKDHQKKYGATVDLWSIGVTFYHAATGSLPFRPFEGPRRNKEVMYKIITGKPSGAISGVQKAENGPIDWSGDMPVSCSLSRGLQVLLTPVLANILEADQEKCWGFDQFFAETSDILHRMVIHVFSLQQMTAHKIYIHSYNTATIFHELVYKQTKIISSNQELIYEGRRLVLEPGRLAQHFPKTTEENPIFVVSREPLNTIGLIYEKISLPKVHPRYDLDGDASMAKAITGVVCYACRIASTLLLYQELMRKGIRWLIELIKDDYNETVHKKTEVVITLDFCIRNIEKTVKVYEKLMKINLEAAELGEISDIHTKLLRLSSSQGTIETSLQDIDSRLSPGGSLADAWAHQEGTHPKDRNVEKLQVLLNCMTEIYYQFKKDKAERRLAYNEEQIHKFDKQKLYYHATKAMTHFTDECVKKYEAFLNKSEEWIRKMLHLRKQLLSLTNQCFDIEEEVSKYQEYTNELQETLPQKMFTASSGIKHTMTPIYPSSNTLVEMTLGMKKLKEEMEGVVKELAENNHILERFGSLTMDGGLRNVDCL
The method, boiled down: as §1

The target in a further experiment is T6, CaMKIIγ (h) (Homo sapiens, UniProt Q13555).
T6 construct: purchased Millipore
T6 sequence (Q13555 whole entry): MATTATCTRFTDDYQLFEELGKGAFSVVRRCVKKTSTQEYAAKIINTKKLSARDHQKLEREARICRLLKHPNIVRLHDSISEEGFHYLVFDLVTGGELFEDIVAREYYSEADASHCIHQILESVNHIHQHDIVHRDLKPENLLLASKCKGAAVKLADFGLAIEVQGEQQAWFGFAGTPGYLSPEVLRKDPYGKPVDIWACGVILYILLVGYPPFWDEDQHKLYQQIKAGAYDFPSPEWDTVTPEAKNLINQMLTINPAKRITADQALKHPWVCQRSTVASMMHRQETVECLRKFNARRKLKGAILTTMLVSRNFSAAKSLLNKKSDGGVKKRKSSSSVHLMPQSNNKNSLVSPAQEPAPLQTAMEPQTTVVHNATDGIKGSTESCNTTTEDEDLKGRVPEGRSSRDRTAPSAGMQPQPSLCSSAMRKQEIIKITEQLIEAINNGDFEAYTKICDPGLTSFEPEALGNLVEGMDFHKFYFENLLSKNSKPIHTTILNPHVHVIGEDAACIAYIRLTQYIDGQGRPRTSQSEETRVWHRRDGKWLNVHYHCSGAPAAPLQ
Summed up:
as §1

The target of a further experiment is T7, IRAK4 (h) (Homo sapiens, UniProt Q9NWZ3).
T7 construct: purchased Millipore
T7 sequence (Q9NWZ3 1-460): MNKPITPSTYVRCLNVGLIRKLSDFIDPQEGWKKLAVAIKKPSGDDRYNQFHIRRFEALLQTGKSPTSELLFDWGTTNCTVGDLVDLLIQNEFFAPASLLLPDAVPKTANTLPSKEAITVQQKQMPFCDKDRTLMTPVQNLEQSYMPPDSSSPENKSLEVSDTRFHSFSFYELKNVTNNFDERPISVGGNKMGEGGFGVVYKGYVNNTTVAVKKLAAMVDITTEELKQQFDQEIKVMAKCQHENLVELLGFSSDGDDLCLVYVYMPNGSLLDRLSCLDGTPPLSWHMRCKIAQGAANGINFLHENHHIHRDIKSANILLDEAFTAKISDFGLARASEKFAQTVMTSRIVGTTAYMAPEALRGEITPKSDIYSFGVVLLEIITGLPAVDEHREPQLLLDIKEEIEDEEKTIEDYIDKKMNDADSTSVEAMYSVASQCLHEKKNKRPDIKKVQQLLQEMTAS
Summed up: as §1

Another experiment addresses FGFR4 (h) (Homo sapiens, UniProt P22455). Summed up:
as §1

For another experiment, the target named is BTK (h) (Homo sapiens, UniProt Q06187). The method, boiled down:
as §1

Chain of EphA5 (h) (P54756 25-1037): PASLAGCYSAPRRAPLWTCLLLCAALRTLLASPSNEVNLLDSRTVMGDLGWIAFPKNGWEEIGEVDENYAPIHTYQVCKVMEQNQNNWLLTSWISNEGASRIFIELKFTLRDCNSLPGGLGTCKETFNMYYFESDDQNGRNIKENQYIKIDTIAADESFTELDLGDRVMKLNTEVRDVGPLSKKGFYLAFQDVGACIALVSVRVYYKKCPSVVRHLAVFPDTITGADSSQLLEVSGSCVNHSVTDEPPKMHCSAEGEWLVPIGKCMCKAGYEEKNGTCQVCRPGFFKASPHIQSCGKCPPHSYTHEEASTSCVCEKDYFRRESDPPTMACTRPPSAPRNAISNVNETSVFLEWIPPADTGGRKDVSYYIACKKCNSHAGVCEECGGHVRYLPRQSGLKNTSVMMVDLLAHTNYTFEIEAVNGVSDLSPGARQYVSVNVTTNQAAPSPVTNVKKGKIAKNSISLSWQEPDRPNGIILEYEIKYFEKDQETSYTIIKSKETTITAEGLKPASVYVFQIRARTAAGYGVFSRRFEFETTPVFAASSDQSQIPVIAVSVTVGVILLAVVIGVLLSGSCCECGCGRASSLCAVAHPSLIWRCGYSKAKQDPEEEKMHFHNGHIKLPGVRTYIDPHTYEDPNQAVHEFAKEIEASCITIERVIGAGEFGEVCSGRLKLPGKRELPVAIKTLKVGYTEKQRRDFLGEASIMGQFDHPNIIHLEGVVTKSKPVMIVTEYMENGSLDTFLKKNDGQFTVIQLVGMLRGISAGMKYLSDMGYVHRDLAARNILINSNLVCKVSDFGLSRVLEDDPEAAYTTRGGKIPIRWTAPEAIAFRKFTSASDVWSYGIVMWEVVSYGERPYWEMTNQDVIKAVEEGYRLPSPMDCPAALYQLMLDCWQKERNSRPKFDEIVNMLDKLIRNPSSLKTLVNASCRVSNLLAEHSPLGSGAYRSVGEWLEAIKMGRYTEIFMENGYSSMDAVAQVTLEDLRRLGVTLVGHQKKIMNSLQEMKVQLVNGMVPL

As for FAKLAARLYRKALARQLGVAA [MMI-0300], the “% activity” value turned out to be 18% with EphA5 (h); 14% with FGFR2 (h); 82% in the experiment with Abl (Q252H) (h); 17% in the experiment with CaMKIV (h); 65% in the experiment with CDK7/cyclinH/MAT1 (h); 79% with ROCK-I (h). The “% activity” value in the experiment with mTOR/FKBP12 (h) is on record as 145%; with Pyk2 (h), 47%; in the experiment with CHK2 (h), 66%; with Flt3(D835Y) (h), 80%; with Tie2 (h), 26%; in the experiment with Fer (h), 130%. Moreover, the “% activity” value in the experiment with TBK1 (h) stood at 37%; with CaMKIIγ (h) it was 5%; with IRAK4 (h), 59%; in the experiment with FGFR4 (h), 28%.
Consider “HRRIKAWLKKIKALARQLGVAA (Mammalian) [MMI-0500]”, for which the “% activity” value was 42% with EphA5 (h); 12% with FGFR2 (h); 40% with Abl (Q252H) (h); −1% in the experiment with CaMKIV (h); 15% with CDK7/cyclinH/MAT1 (h); 17% with ROCK-I (h). Besides, the “% activity” value with mTOR/FKBP12 (h) worked out at 140%; in the experiment with Pyk2 (h), 46%; with BTK (h) it was 18%; in the experiment with CHK2 (h), 13%; in the experiment with Flt3(D835Y) (h), 65%; with Tie2 (h), 22%. The “% activity” value with Fer (h) turned out to be 196%; in the experiment with TBK1 (h) it was 16%; in the experiment with CaMKIIγ (h), 3%; with IRAK4 (h), 3%; with FGFR4 (h), 3%.
Turning to “YARAAARQARAKALNRQLGVA (Mammalian) [MMI-0200]”, the “% activity” value with EphA5 (h) is 123%; with FGFR2 (h), 73%; with CaMKIV (h), 71%; with CDK7/cyclinH/MAT1 (h), 67%; with mTOR/FKBP12 (h), 118%; with Pyk2 (h), 127%. In addition, the “% activity” value stood at 100% with BTK (h); 53% with Tie2 (h); 101% in the experiment with Fer (h); 98% with TBK1 (h); 94% with CaMKIIγ (h); 110% with IRAK4 (h). The “% activity” value with FGFR4 (h) is 75%.
In the case of KAFAKLAARLYRKALARQLGVAA [MMI-0400], the “% activity” value with EphA5 (h) came out at 24%; with FGFR2 (h), 18%; with Abl (Q252H) (h) it was 98%; with CaMKIV (h), 18%; in the experiment with CDK7/cyclinH/MAT1 (h) it was 47%; with ROCK-I (h), 73%. In addition, the “% activity” value is 125% with mTOR/FKBP12 (h); 34% with Pyk2 (h); 94% with BTK (h); 54% with CHK2 (h); 71% with Flt3(D835Y) (h); 21% in the experiment with Tie2 (h). Further, the “% activity” value came to 108% with Fer (h); 39% in the experiment with TBK1 (h); 3% with CaMKIIγ (h); 59% in the experiment with IRAK4 (h); 19% in the experiment with FGFR4 (h).
